The values that follow come from PMC5384220, “Highly selective inhibition of histone demethylases by de novo macrocyclic peptides” (Nature Communications, 2017).

The target of experiment [1] is T1, His-KDM4A_(1–359)-Bio (human, UniProt O75164 1-359, biotin on the AviTag (>95% biotinylation)).
T1 construct: KDM4A, residues 1-359, cloned into pNIC-Bio3; also called His-KDM4A-Bio; His-KDM4A with biotin; not shown: AviTag, C-terminal, kept
T1 sequence (looked up): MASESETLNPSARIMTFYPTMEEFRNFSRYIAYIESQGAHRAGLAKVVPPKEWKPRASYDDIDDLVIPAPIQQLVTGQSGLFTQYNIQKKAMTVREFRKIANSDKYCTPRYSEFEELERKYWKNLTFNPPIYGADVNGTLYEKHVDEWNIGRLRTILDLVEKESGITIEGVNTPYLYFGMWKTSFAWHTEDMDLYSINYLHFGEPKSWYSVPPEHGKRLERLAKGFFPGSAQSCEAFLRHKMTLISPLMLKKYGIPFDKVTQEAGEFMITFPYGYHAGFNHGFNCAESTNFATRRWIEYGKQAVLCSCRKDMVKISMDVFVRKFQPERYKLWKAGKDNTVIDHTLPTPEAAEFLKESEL
As to the kind of experiment: BLI; His-KDM4A(1–359)-Bio (70 nM) immobilised on super streptavidin biosensor, peptides at different concentrations in solution; OctetRed 384; 50 mM HEPES pH 7.5, 150 mM NaCl, 10 μM ammonium iron(II) sulphate. Conditions: both partners purified.

Experiment [2] concerns the target KDM1A (human, UniProt O60341 1-852). The experiment is described as follows: cell-based or functional assay.
For experiment [3], the target named is T2, KDM2A (human, UniProt Q9Y2K7 1-1162).
T2 sequence (looked up): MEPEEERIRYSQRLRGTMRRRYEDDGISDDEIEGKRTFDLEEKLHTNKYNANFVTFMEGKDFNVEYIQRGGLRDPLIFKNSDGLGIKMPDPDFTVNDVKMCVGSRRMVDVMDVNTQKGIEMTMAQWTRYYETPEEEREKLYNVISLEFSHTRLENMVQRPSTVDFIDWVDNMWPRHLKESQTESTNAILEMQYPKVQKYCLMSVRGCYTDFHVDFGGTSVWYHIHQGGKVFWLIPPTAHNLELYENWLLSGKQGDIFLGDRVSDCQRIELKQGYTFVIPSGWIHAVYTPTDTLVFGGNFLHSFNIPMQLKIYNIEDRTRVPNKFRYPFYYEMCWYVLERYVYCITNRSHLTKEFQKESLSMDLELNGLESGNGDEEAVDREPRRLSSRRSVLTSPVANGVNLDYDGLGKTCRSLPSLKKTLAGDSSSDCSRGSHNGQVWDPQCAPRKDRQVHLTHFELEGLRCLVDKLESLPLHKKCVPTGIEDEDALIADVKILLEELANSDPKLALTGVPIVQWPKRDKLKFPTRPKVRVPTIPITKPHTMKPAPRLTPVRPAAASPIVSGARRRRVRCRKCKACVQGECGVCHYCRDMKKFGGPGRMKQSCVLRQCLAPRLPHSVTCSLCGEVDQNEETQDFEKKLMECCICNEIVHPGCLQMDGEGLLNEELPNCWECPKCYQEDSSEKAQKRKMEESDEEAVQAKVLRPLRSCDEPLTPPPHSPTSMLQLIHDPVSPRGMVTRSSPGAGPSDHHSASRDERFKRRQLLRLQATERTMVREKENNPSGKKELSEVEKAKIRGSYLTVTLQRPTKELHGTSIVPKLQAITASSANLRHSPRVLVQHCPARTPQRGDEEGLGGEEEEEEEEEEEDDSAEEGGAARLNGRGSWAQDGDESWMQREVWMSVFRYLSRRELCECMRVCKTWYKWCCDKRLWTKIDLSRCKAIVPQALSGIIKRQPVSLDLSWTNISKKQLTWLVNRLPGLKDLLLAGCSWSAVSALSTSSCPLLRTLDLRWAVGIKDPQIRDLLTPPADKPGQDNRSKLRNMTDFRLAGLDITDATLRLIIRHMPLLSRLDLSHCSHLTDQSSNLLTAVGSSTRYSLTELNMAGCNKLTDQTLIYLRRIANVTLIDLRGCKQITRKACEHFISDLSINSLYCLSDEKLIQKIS
The experiment is described as follows: cell-based or functional assay.

For experiment [4], the target named is T3, KDM3A (human, UniProt Q9Y4C1 1-1321).
T3 sequence (looked up): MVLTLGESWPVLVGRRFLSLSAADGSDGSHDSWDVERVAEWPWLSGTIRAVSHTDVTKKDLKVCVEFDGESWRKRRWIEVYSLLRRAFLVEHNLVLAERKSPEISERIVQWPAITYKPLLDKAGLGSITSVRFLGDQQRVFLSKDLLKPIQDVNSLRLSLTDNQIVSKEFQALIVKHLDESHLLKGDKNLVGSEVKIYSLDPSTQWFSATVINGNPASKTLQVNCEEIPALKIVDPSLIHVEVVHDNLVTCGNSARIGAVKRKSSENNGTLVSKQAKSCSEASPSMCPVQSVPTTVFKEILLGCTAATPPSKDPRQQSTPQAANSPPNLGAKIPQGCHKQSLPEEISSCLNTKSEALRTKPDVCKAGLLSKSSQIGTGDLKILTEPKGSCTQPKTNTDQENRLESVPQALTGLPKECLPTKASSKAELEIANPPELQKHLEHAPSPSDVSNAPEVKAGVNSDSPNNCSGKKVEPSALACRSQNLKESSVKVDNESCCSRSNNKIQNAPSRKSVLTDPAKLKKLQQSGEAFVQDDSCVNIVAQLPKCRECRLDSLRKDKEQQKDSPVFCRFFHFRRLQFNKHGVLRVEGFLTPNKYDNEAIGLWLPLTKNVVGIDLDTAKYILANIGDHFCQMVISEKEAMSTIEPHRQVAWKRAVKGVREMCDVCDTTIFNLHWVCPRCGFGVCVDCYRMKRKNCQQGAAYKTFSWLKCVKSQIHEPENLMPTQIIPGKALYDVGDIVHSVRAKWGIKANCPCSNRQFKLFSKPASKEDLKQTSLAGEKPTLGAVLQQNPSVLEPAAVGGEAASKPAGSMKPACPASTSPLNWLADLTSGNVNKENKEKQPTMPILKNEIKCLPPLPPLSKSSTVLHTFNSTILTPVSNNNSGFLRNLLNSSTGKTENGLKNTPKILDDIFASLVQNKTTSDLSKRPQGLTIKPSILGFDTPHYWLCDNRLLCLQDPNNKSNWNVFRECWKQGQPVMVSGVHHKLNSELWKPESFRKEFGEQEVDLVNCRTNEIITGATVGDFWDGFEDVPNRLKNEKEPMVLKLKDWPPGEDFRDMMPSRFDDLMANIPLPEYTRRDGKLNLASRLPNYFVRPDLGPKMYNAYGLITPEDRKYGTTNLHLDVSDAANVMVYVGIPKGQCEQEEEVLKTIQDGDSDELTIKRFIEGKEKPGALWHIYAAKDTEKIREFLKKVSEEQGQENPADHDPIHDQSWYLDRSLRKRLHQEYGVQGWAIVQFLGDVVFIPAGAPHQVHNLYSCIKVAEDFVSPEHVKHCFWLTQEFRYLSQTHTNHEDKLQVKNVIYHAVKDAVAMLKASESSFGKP
As to the kind of experiment: cell-based or functional assay.

In experiment [5] the target is KDM5C (human, UniProt P41229 1-1560). As to the kind of experiment: cell-based or functional assay.
KDM5C, sequence (P41229 whole entry): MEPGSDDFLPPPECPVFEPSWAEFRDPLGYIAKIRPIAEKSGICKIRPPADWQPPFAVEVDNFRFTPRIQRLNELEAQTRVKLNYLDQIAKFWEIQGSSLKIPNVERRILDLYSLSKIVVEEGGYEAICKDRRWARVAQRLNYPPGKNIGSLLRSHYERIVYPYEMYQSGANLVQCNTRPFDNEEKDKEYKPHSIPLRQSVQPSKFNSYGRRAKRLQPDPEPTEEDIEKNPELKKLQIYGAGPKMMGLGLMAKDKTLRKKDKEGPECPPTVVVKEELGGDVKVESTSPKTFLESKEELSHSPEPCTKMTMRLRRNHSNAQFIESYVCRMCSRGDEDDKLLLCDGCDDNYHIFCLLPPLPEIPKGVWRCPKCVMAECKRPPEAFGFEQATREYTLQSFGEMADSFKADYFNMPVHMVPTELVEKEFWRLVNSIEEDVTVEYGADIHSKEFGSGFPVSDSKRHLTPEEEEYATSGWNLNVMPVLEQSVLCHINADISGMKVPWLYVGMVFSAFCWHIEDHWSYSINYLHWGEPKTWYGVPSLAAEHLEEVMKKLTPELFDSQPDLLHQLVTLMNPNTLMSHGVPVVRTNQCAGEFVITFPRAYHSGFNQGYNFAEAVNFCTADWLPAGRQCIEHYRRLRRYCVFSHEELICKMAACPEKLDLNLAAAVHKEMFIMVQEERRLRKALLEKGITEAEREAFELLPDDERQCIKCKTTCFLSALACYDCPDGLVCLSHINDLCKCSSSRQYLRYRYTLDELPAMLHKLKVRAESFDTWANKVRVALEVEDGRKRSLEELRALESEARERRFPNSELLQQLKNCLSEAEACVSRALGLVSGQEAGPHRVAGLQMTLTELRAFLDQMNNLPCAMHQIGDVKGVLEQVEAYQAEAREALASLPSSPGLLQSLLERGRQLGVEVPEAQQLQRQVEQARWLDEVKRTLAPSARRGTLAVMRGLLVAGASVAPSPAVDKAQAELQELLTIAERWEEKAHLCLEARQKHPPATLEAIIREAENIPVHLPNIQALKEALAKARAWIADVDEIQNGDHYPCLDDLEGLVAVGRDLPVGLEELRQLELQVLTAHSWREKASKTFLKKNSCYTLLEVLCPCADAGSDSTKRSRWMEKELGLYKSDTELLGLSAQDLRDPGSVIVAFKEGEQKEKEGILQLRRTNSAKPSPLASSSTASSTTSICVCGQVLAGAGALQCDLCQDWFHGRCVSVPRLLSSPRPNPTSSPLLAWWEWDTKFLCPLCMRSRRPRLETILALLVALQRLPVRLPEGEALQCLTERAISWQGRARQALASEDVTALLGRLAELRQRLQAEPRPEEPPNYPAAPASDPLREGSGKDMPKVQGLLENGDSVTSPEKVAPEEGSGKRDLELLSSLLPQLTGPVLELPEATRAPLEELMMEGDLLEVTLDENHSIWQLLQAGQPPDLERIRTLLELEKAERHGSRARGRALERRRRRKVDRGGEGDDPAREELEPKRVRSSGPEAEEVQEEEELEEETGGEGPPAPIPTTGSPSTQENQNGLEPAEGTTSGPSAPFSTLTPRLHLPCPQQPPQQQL
Experiment [6] concerns the target KDM6B (human, UniProt O15054 1-1643). As to the kind of experiment: cell-based or functional assay.
Experiment [7] concerns the target prolyl hydroxylase domain 2 (UniProt Q9GZT9 1-426). As to the kind of experiment: cell-based or functional assay.
Experiment [8] concerns the target factor inhibiting HIF (UniProt Q9NWT6 1-349). As to the kind of experiment: cell-based or functional assay.
In experiment [9] the target is T4, KDM4D (human, UniProt Q6B0I6 1-523).
T4 sequence (looked up): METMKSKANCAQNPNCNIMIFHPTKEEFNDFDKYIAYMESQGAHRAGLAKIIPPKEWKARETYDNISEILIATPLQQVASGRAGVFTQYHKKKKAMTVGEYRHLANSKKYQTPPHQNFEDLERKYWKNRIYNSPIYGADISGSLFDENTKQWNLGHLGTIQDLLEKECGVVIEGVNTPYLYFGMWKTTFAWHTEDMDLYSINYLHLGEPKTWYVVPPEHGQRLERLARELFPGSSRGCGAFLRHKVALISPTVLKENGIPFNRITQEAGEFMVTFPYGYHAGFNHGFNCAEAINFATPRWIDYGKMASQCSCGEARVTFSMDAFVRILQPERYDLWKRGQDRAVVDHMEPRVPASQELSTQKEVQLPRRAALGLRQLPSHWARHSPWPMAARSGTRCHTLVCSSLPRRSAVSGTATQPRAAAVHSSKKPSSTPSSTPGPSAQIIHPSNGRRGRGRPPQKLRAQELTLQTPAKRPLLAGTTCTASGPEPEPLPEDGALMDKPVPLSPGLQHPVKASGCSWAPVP
As to the kind of experiment: cell-based or functional assay.

KDM6B, sequence (O15054 whole entry, the tested form may be a part): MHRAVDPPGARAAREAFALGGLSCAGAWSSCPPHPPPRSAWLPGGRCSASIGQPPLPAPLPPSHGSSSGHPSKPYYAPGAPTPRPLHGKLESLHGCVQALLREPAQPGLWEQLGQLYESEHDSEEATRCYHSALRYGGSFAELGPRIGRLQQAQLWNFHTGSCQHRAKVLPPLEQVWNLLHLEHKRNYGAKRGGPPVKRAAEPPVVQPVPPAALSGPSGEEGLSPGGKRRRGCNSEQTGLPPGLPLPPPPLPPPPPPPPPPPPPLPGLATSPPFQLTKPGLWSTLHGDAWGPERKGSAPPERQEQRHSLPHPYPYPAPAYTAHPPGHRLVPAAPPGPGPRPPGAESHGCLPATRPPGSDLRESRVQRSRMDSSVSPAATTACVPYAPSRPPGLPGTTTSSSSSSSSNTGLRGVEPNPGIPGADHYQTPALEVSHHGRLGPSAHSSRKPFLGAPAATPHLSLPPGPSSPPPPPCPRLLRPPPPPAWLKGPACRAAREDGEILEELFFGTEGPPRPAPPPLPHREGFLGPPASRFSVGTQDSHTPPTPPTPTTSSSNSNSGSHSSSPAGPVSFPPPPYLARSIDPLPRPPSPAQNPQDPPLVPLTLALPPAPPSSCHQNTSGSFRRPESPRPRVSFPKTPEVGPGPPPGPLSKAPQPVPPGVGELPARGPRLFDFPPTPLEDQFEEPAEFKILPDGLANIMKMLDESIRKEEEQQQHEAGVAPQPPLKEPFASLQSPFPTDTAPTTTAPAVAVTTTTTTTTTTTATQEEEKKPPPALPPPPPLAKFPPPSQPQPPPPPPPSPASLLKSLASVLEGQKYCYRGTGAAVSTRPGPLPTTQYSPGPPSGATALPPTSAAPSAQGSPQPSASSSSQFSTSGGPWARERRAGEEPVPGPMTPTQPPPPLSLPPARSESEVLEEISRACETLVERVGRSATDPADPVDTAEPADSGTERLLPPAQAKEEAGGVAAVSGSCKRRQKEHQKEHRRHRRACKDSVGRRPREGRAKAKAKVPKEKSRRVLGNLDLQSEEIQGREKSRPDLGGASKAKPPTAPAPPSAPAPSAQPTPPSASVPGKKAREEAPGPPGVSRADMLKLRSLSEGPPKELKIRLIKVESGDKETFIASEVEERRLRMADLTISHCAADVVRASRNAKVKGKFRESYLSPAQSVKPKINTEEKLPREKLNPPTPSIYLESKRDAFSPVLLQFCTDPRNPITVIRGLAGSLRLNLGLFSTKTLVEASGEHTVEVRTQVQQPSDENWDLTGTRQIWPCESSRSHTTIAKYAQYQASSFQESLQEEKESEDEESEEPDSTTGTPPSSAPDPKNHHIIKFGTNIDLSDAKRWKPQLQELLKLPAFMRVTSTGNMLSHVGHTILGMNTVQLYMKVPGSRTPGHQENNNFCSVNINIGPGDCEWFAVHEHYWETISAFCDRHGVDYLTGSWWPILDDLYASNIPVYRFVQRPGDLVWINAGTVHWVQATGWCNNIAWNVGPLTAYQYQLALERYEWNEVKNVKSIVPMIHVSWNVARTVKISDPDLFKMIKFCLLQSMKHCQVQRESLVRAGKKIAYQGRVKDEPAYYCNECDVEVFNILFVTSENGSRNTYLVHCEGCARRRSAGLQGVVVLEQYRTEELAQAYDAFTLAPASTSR
prolyl hydroxylase domain 2, sequence (Q9GZT9 whole entry, the tested form may be a part): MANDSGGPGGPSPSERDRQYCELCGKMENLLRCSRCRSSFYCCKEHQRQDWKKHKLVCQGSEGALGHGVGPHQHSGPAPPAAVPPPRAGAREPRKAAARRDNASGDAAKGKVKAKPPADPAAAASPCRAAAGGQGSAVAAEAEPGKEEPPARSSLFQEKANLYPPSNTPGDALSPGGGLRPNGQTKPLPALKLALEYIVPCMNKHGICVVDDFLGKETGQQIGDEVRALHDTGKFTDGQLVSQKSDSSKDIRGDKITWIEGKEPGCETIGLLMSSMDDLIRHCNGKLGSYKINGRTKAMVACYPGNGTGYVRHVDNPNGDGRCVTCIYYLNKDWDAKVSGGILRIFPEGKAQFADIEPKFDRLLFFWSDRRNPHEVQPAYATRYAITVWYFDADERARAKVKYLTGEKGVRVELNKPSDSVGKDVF
factor inhibiting HIF, sequence (Q9NWT6 whole entry): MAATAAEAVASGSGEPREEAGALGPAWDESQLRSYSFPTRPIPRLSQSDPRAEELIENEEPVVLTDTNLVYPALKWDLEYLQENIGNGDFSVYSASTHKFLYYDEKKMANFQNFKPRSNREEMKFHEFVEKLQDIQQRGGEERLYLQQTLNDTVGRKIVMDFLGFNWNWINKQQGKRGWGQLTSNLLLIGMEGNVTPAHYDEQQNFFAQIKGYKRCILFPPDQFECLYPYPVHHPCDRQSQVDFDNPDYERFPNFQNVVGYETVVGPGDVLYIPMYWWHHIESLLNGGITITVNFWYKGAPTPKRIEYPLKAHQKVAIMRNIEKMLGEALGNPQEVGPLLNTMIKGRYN

B1: H3(1–15)K9me3 (peptide, UniProt P68431 2-16, looked up)
peptide: ARTKQTARKSTGGKA
modifications: trimethyl-lysine at 9
notes: histone H3, residues 1-15, Lys9 trimethylated; The H3K9me3 substrate of the formaldehyde dehydrogenase coupled assay is not described further; this molecule is used for it; also called histone H3K9 peptide; H3K9me3
As for B1, the “fold weaker Kd than the cyclic peptides CP2, CP4 and CP5” value in experiment [1] is greater than 1000 fold.

B2: CP5 (peptide)
chain: YSKYTQSGVRWVC
modifications: not fully specified; N-terminal L-Tyr (^LTyr library, N-chloroacetyl-L-Tyr) cyclised by a thioether to a downstream cysteine
As for B2, the “IC50 of inhibition of KDM1A/LSD1 (fluorescence-based assay)” value in experiment [2] is greater than 10 µM. For the same molecule, the “IC50 of inhibition of demethylase activity (AlphaScreen activity assay)” value in experiment [3], in [4], in experiment [5], in [6] and in experiment [9] was greater than 10 µM in each case. Besides, in experiment [7], the “IC50 of inhibition of PHD2 (MALDI–TOF MS assay)” value is greater than 1000 µM. For the same molecule, the “IC50 of inhibition of FIH (MALDI–TOF MS assay)” value in [8] was greater than 1000 µM.
